The test has as its system mouse melanoma B16-F10. The test is described as follows: In vivo melanoma B16-F10 model (Example 22). Details: species or system C57BL/6 mice. The note with it: intraperitoneal 10 mg/kg on days 3 and 6. Here is the method:
The drug efficacy of the anti-FSTL1 antibody was evaluated according to Examples 17 to 20 using other cancer-bearing models of C57BL/6 mice of the same strain as in Snail-positive tumor bone metastasis models. The “mouse melanoma B16-F10” is a parent line of the cell line forced to express Snail, which was transplanted in the bone metastasis models used in the preceding tests.
1. Experiment Group (n=5) 1. Mouse melanoma B16-F10+control IgG (anti-DNP mAb) 2. Mouse melanoma B16-F10+anti-FSTL mAb (#6-55)
• Day 0: transplantation of tumor cells (1×10^6 cells subcutaneously & 1×10^6 cells intravenously) • Day 3: intraperitoneal administration of the antibody (first dose, corresponding to 200 μg/mouse=10 mg/kg) • Day 6: intraperitoneal administration of the antibody (second dose, corresponding to 200 μg/mouse=10 mg/kg) • Day 15 various immunological assays
• Effects on the growth of subcutaneous tumor (calculation of tumor volume by tumor size measurement): measured 6, 10, and 14 days after tumor implantation (FIG. 16A) • Effects on weight loss (FIG. 16B)

Experimental findings from patent US20180021429A1, “ANTICANCER AGENTS OR ANTIMETASTATIC AGENTS USING FSTL1 AND COMBINATION DRUG THEREOF” (PHARMA FOODS INTERNATIONAL CO., LTD., priority 2015, published 2018) are described below.

B1: #6-55: chicken-mouse chimeric anti-FSTL1 antibody clone; variable regions SEQ ID NO: 783 (light), 785 (heavy) (antibody, V domains shown)
VH: AVTLDESGGGLQTPGGALSLVCKGSGFTFTSVTMQWVRQAPGKGLEWVASVCSGSSTYYAPAVKGRATISRDNGQSTVRLQLSNLRPEDTGTYYCAKIAGRARWSCTSAAYNIDAWGHGTEVIVSS
VL: ASTQPSSVSAIPGETVKITCSGGGNNYGWYQQRSPGSAPVTVIYYNDNRPSNIPSRFSGSTSGSTSTLTITGVQADDEAIYYCGSWDSNTDSGIFGAGTTLTVL
modifications: mouse constant regions
Consider B1, for which the weight loss entry is listed as “suppressive activity against weight loss was also exhibited”. For the same molecule, the subcutaneous tumor growth result (vs control antibody) is “strongly suppressed”.
